Results on one molecule are retold here after paper PMC2705800, “Nucleocytoplasmic Shuttling of the TACC Protein Mia1p/Alp7p Is Required for Remodeling of Microtubule Arrays during the Cell Cycle” (PLoS ONE, 2009).

In this test the target is T1, MBP-Mia1p-MutNES4 (S. pombe, UniProt Q9URY2 1-474, L461A (AVAAMDQANA; Leu/Ile residues 461, 463, 468 and 470) | I463A (AVAAMDQANA; …).
T1 construct: Cloned into the pAD2a vector (MBP upstream of the multiple cloning site), as m1; also called Mia1-MutNES4; NES mutant version of Mia1p; source: E. coli BL21 (DE3) carrying the pG-KJE8 chaperone plasmid; not shown: MBP, N-terminal, kept
T1 sequence (looked up): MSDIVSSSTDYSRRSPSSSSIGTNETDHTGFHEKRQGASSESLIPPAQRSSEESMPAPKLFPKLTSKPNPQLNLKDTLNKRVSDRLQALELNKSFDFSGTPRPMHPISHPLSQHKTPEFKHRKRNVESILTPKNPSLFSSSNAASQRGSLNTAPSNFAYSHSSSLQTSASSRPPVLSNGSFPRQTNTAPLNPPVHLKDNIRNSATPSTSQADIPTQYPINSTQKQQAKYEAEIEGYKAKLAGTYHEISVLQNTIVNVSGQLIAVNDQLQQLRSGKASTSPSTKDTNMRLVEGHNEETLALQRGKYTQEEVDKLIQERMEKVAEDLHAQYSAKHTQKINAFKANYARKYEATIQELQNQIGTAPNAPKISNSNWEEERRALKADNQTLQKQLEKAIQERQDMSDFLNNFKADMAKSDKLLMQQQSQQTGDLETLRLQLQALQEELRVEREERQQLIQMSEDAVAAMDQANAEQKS
Nature of the test: pull-down; MBP fusion held on amylose resin, incubated 1 hour at 4°C with soluble total lysate of Alp14p-13myc expressing mia1Δ S. pombe cells; Buffer A (20 mM Tris-HCl pH 7.4, 400 mM NaCl, 1 mM EDTA, 10 mM β-mercaptoethanol); washed 3 times; Alp14p-myc detected with anti-myc antibody, MBP proteins by Coomassie. As to conditions: one partner purified.

B1: Alp14p-13myc (natural protein, S. pombe, UniProt O94534 1-809, looked up)
chain: MSQDQEEDYSKLPLESRIVHKVWKVRLSAYEECSKSFSLSADGSDNCFELWNNQSELWKSVLTDSNVAAQEAGTAAFVAYCRFSDPSHLLKAREISVLSISEKCLTSPRAGTRENALEALMLLVEADSAAPVIESIIPSLSARSPKVIASNVAAIASLVEQFGAKVIPSKMIIPHISNLFGHADKNVRKEASRLTVNIYRWTGDPLKDLLFKDLRPVQTKELESLFAELPTEPPKQTRFLKSQQPTSEPNVETQVEEQPALENEESEPEPSDDQFDLVEEVDVLPNVDPNLETLMASSKWKDRKEALDKLLPVLSQPKIKDNDFFNLVAILTKSVSKDANIMVVINAAHCIQAMAKGLRSNFSKYASTSINALLERSKEKKANVIESLSSAMDAVLATSSLDDLAELIASFAGNKNPQIKSSCFSLFSRSFSNMTSLPSKFTVDTCAKACVPGVSDTFEPVRSAAAEALGVLMKLVGERAINQYLSPLDDIRKSKIRSFYETATVKAKAPTKKSKVKPSKQEESKVVVPSNAKAVKKSVVPSSPVVPSPRKATNKSLSMDVSKGNAFENGPLLPRPTTRPVSRGLSRGTSSSLQQKVKASTPLNSGALNETVQNLKNMELDDPAPQPAKHSRVDRYEHPKVLEDNDSTISSLESLKRENEELREQLKVEHEENISMQKQLSELKGELNTLRSARKASPIGDRKPAFMRRANTDFLELSTSPSFQRSVREFEPTRPKLYSSIDVNQRSPLASAKTNGNFTFHAELPRSPFSSRANNINPDWTKAIDLAAKLKQKITEMKQTDQRHQGLIH
notes: Alp14p, TOG protein of Schizosaccharomyces pombe, partner of Mia1p/Alp7p; also called Alp14p-myc; Alp14p/TOG; source: S. pombe mia1Δ cells expressing Alp14p-13myc, total cell lysate
On to B1, for which the “ratio of Alp14p-myc pulled down, against MBP-Mia1p” value is 0.26 ratio to MBP-Mia1p.
